{
  "source": "patent US20230203197",
  "proteins": {"B1": {"name": "neutrophil proteinase 3 (PR3), purified native human PR3 (protein)", "chain": "IVGGHEAQPHSRPYMASLQMRGNPGSHFCGGTLIHPSFVLTAAHCLRDIPQRLVNVVLGAHNVRTQEPTQQHFSVAQVFLNNYDAENKLNDVLLIQLSSPANLSASVATVQLPQQDQPVPHGTQCLAMGWGRVGAHDPPAQVLQELNVTVVTFFCRPHNICTFVPRRKAGICFGDSGGPLICDGIIQGIDSFVIWGCATRLFPDFFTRVALYVDWIRSTLR"}},
  "molecular_target": "alpha 1 antitrypsin (α1AT), P01009",
  "sequence (P01009 whole entry, looked up)": "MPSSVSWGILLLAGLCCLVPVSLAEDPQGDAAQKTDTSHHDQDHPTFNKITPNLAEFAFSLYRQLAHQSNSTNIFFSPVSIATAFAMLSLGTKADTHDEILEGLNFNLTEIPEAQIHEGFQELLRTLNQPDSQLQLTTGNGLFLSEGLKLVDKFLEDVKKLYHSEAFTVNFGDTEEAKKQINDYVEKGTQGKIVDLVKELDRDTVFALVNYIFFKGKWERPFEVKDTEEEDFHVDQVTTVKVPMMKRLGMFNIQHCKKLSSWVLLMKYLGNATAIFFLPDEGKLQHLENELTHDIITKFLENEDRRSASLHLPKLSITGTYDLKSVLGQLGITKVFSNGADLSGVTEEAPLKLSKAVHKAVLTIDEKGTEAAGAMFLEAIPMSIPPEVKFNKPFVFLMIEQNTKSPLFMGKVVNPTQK",
  "data": [
    {"protein": "B1", "values": [
      {"measurement": "enzymatic activity of PR3 (fluorescent substrate Abz-VADnVADYQ-YNO2)", "result": "the addition of alpha 1 anti-trypsin (1AT) which is a natural PR3 inhibitor did not induce any degradation of the PR3 substrate"}
    ]}
  ]
}
